This assay addresses RecBCD (endogenous exonuclease of the E. coli cell-free extract) (E. coli) (UniProt P08394). The experiment in a line: cell-based or functional assay.
UniProt P08394, sequence (P08394 2-1180 limits assumed, chain 1 of 3): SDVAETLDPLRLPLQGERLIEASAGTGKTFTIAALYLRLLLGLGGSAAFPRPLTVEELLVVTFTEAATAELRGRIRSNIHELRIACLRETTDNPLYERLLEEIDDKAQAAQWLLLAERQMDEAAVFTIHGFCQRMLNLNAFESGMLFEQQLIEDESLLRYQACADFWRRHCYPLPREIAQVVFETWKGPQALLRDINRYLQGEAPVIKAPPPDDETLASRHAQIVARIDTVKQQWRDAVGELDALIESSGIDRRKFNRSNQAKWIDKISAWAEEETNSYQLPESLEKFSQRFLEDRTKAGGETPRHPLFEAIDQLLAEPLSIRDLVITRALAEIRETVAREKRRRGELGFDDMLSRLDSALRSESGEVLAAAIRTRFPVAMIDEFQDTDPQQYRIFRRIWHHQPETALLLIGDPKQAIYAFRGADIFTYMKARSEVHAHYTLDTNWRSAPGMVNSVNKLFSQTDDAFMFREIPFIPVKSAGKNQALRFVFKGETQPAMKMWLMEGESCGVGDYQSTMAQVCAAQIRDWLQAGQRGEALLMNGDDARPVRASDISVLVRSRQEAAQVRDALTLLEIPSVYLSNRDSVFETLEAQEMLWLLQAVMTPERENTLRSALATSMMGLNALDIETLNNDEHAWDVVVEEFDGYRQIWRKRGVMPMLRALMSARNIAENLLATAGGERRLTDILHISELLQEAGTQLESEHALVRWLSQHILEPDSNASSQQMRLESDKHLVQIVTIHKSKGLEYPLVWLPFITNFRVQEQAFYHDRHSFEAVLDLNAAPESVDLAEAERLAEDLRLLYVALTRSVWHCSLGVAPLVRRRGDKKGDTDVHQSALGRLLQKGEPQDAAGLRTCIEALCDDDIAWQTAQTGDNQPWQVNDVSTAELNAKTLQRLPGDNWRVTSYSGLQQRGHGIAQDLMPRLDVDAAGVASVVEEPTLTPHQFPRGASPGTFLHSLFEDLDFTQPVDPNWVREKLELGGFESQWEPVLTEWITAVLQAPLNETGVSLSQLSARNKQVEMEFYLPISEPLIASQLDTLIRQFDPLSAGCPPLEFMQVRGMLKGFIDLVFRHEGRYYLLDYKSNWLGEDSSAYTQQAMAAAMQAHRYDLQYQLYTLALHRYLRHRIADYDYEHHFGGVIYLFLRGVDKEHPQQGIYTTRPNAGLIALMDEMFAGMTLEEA
UniProt P08394, sequence (P07648 whole entry, chain 2 of 3, further chain): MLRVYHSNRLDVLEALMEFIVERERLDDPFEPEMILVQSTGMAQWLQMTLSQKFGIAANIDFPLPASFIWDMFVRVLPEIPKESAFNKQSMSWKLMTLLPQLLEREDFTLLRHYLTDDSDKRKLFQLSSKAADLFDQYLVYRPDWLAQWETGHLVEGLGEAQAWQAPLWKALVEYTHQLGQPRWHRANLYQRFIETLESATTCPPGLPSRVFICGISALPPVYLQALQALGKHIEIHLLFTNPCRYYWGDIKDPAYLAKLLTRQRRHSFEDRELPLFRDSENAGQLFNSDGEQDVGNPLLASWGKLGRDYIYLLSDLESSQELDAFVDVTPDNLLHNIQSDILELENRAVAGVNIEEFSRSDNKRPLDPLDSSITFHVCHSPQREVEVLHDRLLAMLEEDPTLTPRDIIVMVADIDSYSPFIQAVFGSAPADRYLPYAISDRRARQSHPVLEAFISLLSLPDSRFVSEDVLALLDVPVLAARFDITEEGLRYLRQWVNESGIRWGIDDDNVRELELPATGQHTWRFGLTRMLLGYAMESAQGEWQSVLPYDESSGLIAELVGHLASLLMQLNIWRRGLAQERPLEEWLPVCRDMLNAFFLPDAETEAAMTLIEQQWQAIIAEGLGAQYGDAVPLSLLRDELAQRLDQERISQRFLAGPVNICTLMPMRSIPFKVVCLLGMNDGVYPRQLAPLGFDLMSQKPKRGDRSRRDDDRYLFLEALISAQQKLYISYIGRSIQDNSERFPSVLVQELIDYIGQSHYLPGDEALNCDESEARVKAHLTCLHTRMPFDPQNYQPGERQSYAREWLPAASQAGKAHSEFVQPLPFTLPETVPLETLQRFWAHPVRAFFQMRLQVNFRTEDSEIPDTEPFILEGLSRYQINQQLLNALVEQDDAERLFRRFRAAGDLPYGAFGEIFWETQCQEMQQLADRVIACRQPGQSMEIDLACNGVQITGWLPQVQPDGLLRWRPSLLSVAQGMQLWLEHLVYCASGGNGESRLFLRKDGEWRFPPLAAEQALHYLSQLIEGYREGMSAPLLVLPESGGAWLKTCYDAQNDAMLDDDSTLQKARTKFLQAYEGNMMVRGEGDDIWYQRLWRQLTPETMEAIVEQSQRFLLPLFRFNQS
UniProt P08394, sequence (P04993 whole entry, chain 3 of 3, further chain): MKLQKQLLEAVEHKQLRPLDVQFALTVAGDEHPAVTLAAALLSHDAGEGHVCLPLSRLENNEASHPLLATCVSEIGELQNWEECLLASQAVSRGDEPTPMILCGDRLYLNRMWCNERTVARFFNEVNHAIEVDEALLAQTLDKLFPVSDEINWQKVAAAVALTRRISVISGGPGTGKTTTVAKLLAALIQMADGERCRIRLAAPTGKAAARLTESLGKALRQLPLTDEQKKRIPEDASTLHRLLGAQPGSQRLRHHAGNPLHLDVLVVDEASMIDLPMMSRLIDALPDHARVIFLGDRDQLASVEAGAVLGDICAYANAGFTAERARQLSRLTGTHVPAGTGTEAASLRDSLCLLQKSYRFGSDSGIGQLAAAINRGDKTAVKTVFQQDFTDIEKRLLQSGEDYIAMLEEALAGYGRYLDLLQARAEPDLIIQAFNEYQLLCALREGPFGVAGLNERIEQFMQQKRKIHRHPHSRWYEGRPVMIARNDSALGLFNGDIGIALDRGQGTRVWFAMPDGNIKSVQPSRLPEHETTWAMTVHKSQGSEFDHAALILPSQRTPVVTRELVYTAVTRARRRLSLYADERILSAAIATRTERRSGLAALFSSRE

With “gamS protein (GamS, a truncated form of lambda gam) (from UniProt P03702 1-98)”, the protection of linear DNA from degradation in TX-TL (endpoint deGFP expression from 2 nM linear DNA); gamS working concentration is 3.5 µM.
